Experimental data: patent US20240317865A1 (MOMENTA PHARMACEUTICALS, published 2024)

Assays:
[1] = target: α11β1 on CHO-K1 cells stably expressing human α11 (CHO-K1 hu α11) (human, UniProt Q9UKX5 23-1188); test: cell-based or functional assay
[2] = target: T1, recombinant human integrin alpha 11 beta 1 (α11β1) (human, UniProt Q9UKX5 23-1141; P05556 21-728); test: SPR (Biacore T200), HIS-tagged human α11β1 captured by anti-HIS antibody, single-cycle kinetics, 1:1 Langmuir fit
T1 construct: Coated in ELISA; also called human α11β1; soluble human α11β1
Experimental: The affinity of antibodies for human α11β1 was measured by surface plasmon resonance assay (SPR). Affinity was measured at pH 7.6 and 25° C. with a Biacore T200 instrument. Anti-HIS antibody was immobilized on the SPR sensor surface using EDC/NHS covalent attachment. HIS-tagged human α11β1 was captured on the sensor surface and a single-cycle kinetics assay was used. Increasing concentrations of test antibody were injected in series over the sensor-bound α11β1. Dissociation was monitored for 1000 seconds. A sensor surface with only anti-HIS antibody and a series of blank injections were used to double-reference subtract the data. A 1:1 Langmuir model was fit to the data to estimate the kinetic association and dissociation constants. The affinity (equilibrium dissociation constant) of the interaction was calculated by dividing the kinetic dissociation constant by the kinetic association constant. Between injection cycles α11β1 and bound antibody were removed with an injection of 10 mM glycine at pH 1.5.
The binding affinity of antibodies for the α11β1 Headpiece and α11β1 I Domain as measured by SPR is shown in FIG. 10A and FIG. 10B, respectively.

[3] = target: T2, α11β1 on human myofibroblasts (MF) (human, UniProt Q9UKX5 23-1188; P05556 21-798); test: FACS (PE) on human myofibroblasts, histogram
T2 construct: whole, on cells; Human pulmonary fibroblasts treated with TGFβ

[4] = target: T1, recombinant human integrin alpha 11 …; test: ELISA on plate-coated recombinant human α11β1, OD 450nm
Experimental: 0.25 μg/mL of target antigen (recombinant human or mouse α11β1) was plated in a 96-well plate over night at 4° C. Plates were washed (PBS with 0.1% Tween-20), blocked (PBS with 2% BSA and 0.05% Tween-20) for 1 hour at room temperature and incubated with a range of antibody concentrations for 1 hour at room temperature. Subsequently, plates were washed and incubated with biotinylated anti-rabbit/mouse/human IgG in a 1:1000 dilution buffer and incubated for 1 hour at room temperature. After washing the plates, Streptavidin HRP was added at 1:200 in dilution buffer and incubated for 1 hour at room temperature. Ultra TMB ELISA substrate solution was added and the plates incubated for 5 minutes on a plate shaker. The reaction was stopped by adding stop solution to each well and plates were read at 450 nm.

T1 sequence (Q9UKX5 23-1141 limits assumed, chain 1 of 2): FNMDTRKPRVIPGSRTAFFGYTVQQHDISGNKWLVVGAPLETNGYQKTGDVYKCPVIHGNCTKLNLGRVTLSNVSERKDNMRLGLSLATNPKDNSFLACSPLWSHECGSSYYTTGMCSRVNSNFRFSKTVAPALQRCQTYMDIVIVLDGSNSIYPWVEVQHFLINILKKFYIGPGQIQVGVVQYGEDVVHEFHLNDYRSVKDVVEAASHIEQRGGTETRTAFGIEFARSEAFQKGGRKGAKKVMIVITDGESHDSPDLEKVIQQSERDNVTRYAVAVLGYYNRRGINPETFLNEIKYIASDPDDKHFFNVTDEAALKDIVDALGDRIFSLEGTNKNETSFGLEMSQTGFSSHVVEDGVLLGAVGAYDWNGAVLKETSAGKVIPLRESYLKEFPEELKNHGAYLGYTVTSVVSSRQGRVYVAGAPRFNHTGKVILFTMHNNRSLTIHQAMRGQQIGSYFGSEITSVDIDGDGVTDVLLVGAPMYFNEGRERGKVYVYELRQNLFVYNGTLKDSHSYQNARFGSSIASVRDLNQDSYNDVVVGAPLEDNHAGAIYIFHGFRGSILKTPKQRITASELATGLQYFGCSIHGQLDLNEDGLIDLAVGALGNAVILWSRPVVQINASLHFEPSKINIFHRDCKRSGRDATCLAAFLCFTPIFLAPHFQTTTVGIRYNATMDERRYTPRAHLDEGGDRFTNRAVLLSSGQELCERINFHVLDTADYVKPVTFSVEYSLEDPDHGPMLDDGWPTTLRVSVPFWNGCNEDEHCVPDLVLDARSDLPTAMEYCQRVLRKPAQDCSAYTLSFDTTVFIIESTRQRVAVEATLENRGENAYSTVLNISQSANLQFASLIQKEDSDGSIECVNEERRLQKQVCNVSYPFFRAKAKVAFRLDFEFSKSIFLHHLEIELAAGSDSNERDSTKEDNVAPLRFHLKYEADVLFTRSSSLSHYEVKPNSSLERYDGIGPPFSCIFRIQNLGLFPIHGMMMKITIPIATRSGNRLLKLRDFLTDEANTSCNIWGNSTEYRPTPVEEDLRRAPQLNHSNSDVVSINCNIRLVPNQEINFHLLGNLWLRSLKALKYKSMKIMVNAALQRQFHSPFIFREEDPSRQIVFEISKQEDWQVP
T1 sequence (P05556 21-728 limits assumed, chain 2 of 2): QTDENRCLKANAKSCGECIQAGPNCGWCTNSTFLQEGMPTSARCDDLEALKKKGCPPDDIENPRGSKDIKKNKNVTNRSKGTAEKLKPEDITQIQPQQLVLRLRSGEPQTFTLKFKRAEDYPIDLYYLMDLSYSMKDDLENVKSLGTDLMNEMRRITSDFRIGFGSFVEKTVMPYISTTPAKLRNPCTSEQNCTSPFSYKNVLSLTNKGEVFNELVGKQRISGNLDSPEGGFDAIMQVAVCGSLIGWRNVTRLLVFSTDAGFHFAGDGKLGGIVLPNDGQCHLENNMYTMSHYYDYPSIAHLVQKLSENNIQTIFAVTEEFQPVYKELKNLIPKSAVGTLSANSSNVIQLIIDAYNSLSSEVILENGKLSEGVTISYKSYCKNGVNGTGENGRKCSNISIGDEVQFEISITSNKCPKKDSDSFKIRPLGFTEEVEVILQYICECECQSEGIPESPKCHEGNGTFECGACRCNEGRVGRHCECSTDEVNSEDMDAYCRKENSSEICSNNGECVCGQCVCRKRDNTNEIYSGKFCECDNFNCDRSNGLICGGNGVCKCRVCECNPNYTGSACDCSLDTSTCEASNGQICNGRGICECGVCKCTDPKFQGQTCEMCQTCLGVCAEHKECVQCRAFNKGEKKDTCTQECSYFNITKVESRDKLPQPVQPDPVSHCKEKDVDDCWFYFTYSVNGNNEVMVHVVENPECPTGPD
T2 sequence (Q9UKX5 23-1188, chain 1 of 2): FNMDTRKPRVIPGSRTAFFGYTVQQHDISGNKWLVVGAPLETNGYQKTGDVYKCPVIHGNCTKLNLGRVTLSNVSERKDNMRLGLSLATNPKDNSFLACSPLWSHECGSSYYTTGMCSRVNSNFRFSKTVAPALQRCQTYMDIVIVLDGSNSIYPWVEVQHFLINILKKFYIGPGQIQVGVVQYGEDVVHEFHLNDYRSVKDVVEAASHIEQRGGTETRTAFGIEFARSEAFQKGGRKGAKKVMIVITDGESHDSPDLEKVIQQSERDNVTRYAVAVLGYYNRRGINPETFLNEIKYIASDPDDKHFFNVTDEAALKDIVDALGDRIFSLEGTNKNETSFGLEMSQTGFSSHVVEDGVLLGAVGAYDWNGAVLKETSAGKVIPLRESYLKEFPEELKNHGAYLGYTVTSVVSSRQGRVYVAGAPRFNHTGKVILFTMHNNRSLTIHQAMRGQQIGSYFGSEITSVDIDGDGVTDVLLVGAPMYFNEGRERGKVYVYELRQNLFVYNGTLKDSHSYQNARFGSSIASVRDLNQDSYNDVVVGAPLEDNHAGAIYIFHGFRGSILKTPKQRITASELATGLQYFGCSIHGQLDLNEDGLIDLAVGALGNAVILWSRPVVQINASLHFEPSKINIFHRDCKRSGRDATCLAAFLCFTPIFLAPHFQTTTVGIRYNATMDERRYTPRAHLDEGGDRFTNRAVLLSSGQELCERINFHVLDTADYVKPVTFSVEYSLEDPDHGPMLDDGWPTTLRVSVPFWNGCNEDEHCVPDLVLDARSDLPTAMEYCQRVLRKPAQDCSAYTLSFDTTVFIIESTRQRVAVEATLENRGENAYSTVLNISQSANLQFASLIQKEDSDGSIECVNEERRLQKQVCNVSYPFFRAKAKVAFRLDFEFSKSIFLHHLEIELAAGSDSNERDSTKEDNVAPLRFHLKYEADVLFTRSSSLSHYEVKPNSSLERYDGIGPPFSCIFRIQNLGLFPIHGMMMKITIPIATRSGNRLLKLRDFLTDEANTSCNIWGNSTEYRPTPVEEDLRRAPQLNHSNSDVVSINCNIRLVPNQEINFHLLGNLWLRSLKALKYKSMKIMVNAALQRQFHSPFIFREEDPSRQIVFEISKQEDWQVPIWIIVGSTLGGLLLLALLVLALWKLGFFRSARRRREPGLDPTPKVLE
T2 sequence (P05556 21-798, chain 2 of 2): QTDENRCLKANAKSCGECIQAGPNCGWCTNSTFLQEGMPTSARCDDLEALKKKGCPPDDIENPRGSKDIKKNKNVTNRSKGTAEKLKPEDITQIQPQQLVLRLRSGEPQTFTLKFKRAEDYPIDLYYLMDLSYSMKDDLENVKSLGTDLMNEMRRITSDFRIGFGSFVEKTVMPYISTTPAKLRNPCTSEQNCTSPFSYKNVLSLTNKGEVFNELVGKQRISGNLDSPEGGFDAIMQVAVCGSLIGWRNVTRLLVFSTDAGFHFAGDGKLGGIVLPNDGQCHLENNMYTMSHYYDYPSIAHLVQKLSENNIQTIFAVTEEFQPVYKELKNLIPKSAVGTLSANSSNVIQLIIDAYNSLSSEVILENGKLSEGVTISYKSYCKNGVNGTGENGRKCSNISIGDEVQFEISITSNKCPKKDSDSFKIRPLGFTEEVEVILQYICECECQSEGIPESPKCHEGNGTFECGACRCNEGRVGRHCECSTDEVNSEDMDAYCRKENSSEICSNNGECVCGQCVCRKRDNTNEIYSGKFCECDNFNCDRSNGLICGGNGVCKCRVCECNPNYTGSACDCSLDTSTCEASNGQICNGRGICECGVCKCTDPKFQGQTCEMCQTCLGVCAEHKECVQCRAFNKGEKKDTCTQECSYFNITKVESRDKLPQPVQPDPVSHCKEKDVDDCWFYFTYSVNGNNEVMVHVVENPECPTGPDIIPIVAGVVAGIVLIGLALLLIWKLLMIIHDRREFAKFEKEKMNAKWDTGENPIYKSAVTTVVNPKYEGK
Sequence of α11β1 on CHO-K1 cells stably expressing human α11 (CHO-K1 hu α11) (Q9UKX5 23-1188): as the sequence (Q9UKX5 23-1188, chain 1 of 2) above

B1: A11B1_16E10 (antibody, V domains shown)
VH: QSLEESGGDLVKPGASLTLTCRVSGFSFSSSYYMCWVRQAPGKGLEWIACIGTTRGSTYYATWAKGRFTISKISSTTVTLQMTSLTDADTATYFCARDATGYRINTIGLYFNLWGPGTLVTVSS
VL: AFELTQTPSSVEAAVGGTPTIKCQASQTIYSYLSWYQQKPGQPPKLLIYEASKLASGVPSRFSGSGSGTDYTLTISDLECADAATYYCQSYHGTASTEYNTFGGGTEVVVRG
notes: rabbit monoclonal, recombinantly produced in HEK cells; full chains
B1 was tested, and the “IC50, inhibition of adhesion of CHO-α11 cells to type I collagen, dose curve” value [1] was 390 pM, the koff [2] was 0.000224 s⁻¹ and the kon [2] was 4.68e+06 M⁻¹ s⁻¹.

B2: 8-J17 (antibody, V domains shown)
VH: QVQLQQSGAELAKPGASVKMSCKASGYTFTNYWMHWVKQRPGQGLEWIGYINPNNGYTEYNQRFKDKATLTADRSSTTAYMQLSSLTSEDSAVYYCARSDIITTDYWGQGTTLTVSS
VL: DVVMTQTPLSLPVSLGDQASISCRSSQSLVYSNGNTYLHWYLQKPGQSPKLLIYKVSNRFSGVPDRFSGSGSGTDFTLKISRVEAEDLGVYFCSQSTHVPWTFGGGTKLEIK
notes: mouse hybridoma IgG
B2: binds [3]; binds [4].
